Patent KR20230010676A (dated 2023)

Legend:
Experiment in all cases: cell-based or functional assay
SARS-CoV-2 S N501Y = SARS-CoV-2 S N501Y (SARS-CoV-2, UniProt P0DTC2 14-1273)
SARS-CoV-2 S E484K = SARS-CoV-2 S E484K (SARS-CoV-2, UniProt P0DTC2 14-1273)
SARS-CoV-2 S T478K = SARS-CoV-2 S T478K (SARS-CoV-2, UniProt P0DTC2 14-1273)
SARS-CoV-2 S S494P = SARS-CoV-2 S S494P (SARS-CoV-2, UniProt P0DTC2 14-1273)
SARS-CoV-2 S P384L = SARS-CoV-2 S P384L (SARS-CoV-2, UniProt P0DTC2 14-1273)
SARS-CoV-2 S K417N = SARS-CoV-2 S K417N (SARS-CoV-2, UniProt P0DTC2 14-1273)
SARS-CoV-2 S S477N = SARS-CoV-2 S S477N (SARS-CoV-2, UniProt P0DTC2 14-1273)
SARS-CoV-2 S N439K = SARS-CoV-2 S N439K (SARS-CoV-2, UniProt P0DTC2 14-1273)
SARS-CoV-2 S Y453F = SARS-CoV-2 S Y453F (SARS-CoV-2, UniProt P0DTC2 14-1273)
SARS-CoV-2 S A520S = SARS-CoV-2 S A520S (SARS-CoV-2, UniProt P0DTC2 14-1273)
SARS-CoV-2 S L452R = SARS-CoV-2 S L452R (SARS-CoV-2, UniProt P0DTC2 14-1273)
SARS-CoV-2 S N501T = SARS-CoV-2 S N501T (SARS-CoV-2, UniProt P0DTC2 14-1273)
SARS-CoV-2 S A522S = SARS-CoV-2 S A522S (SARS-CoV-2, UniProt P0DTC2 14-1273)

Measured: S2E12의 중화 감소 (배)

B1: S2E12 (antibody, V domains shown)
VH: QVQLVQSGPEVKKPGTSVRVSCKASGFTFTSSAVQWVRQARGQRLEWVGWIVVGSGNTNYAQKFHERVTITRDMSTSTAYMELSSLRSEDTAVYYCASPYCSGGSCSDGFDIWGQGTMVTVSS
VL: DIVLTQTPGTLSLSPGERATLSCRASQSVSSSYLAWYQQKPGQAPRLLIYGASSRATGIPDRFSGSGSGTDFTLTISRLEPEDFAVYYCQQYVGLTGWTFGQGTKVEIK
notes: also called S2E12 WT; S2E12 wt
< 3 배: all assays above
